Experimental data from IntAct's records for PubMed 23468526.

B1: Moesin/ezrin/radixin homolog 1 (Drosophila melanogaster (Fruit fly)), P46150 (parent)
chain: MSPKALNVRVTTMDAELEFAIQSTTTGKQLFDQVVKTIGLREVWFFGLQYTDSKGDSTWIKLYKKVMNQDVKKENPLQFRFRAKFYPEDVAEELIQDITLRLFYLQVKNAILTDEIYCPPETSVLLASYAVQARHGDHNKTTHTAGFLANDRLLPQRVIDQHKMSKDEWEQSIMTWWQEHRSMLREDAMMEYLKIAQDLEMYGVNYFEIRNKKGTDLWLGVDALGLNIYEQDDRLTPKIGFPWSEIRNISFSEKKFIIKPIDKKAPDFMFFAPRVRINKRILALCMGNHELYMRRRKPDTIDVQQMKAQAREEKNAKQQEREKLQLALAARERAEKKQQEYEDRLKQMQEDMERSQRDLLEAQDMIRRLEEQLKQLQAAKDELELRQKELQAMLQRLEEAKNMEAVEKLKLEEEIMAKQMEVQRIQDEVNAKDEETKRLQDEVEDARRKQVIAAEAAAALLAASTTPQHHHVAEDENENEEELTNGDAGGDVSRDLDTDEHIKDPIEDRRTLAERNERLHDQLKALKQDLAQSRDETKETANDKIHRENVRQGRDKYKTLREIRKGNTKRRVDQFENM
partner: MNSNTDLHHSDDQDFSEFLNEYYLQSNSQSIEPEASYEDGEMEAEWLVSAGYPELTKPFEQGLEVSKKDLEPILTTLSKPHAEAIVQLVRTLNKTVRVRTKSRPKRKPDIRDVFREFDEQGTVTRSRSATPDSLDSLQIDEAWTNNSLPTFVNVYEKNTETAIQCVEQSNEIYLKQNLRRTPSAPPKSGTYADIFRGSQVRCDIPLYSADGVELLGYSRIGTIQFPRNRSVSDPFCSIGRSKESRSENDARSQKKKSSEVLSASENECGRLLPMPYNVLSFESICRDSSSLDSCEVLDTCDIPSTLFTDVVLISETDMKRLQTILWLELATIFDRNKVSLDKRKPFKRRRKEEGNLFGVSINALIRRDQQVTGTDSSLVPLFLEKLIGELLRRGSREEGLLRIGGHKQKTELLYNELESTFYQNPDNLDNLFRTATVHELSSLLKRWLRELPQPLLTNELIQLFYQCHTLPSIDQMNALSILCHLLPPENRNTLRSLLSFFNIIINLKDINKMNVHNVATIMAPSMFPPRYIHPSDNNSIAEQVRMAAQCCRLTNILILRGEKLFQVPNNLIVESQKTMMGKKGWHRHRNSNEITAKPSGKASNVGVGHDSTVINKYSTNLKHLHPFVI

Variants of: B1
Conditions: with conu_drome conu

Variant	effect of a mutation on the interaction
T559D	increasing interaction strength
